# From US20240390468A1 (IMMUNOVACCINE TECHNOLOGIES, published 2024)
# Experiments:
# [1] = biological target: T1, MHC class 1 allele A*02:01; assay: REVEAL on-rate assay, HLA-A*02:01
# T1 construct: also called HLA-A2; HLA-A*02:01
# [2] = biological target: T1, MHC class 1 allele A*02:01; assay: REVEAL off-rate assay, HLA-A*02:01
# [3] = biological target: T1, MHC class 1 allele A*02:01; assay: REVEAL peptide-MHC binding assay, HLA-A*02:01
# [4] = biological target: T1, MHC class 1 allele A*02:01; assay: REVEAL R-score, HLA-A*02:01
# [5] = biological target: T1, MHC class 1 allele A*02:01; assay: REVEAL kinetic score, HLA-A*02:01
Binder,On-rate T1/2 [1] [h],Off-rate T1/2 [2] [h],REVEAL score [3],R-score [4],Kinetic score [5]
"KVAELVHFL (also called p111) [MAGE-A9 111 (MAGE-A9 peptide antigen 111, KVAELVHFL)]",9.52,> 120,166,20.9,12.6
"FLWGSKAHA (also called p270; M9-A2-270) [MAGE-A9 270 (MAGE-A9 peptide antigen 270, FLWGSKAHA)]",9.43,> 120,173,22.1,12.7
"ALSVMGVYV (also called p223; M9-A2-223) [MAGE-A9 223 (MAGE-A9 peptide antigen 223, ALSVMGVYV)]",9.17,> 120,199,26,13.1
"LMLGEFLKL [SurA2.M (survivin peptide antigen HLA-A2, LMLGEFLKL)]",9.36,> 120,172,22.1,12.8
